Results taken from paper PMC2173062 (The Journal of Cell Biology, 2002).

Key:
[1] = molecular target: bovine Hsc70, recombinant wild type (bovine, UniProt P19120 1-650); assay: pull-down
[2] = molecular target: bovine Hsc70 R447H, recombinant mutant (bovine, UniProt P19120 1-650, R447H); assay: pull-down
Sequence of bovine Hsc70 R447H, recombinant mutant (P19120 whole entry R447H): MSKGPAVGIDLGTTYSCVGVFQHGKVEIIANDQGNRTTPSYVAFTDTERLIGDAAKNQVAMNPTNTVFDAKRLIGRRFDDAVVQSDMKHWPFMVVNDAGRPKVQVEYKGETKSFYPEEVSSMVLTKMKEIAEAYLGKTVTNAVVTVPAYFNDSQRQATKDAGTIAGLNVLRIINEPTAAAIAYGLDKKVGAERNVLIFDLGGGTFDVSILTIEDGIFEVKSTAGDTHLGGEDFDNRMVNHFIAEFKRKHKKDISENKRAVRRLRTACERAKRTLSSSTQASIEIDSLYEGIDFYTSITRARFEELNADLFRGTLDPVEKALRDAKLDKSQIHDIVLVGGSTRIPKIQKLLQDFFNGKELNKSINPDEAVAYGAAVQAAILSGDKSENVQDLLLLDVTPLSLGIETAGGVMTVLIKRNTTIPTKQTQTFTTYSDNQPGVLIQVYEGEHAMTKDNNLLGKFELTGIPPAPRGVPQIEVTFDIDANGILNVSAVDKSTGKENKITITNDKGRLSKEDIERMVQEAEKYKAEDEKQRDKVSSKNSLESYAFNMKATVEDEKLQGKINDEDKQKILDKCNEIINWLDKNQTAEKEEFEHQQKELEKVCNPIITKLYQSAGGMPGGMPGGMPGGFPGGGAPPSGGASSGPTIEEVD

Sequence of bovine Hsc70, recombinant wild type (P19120 whole entry): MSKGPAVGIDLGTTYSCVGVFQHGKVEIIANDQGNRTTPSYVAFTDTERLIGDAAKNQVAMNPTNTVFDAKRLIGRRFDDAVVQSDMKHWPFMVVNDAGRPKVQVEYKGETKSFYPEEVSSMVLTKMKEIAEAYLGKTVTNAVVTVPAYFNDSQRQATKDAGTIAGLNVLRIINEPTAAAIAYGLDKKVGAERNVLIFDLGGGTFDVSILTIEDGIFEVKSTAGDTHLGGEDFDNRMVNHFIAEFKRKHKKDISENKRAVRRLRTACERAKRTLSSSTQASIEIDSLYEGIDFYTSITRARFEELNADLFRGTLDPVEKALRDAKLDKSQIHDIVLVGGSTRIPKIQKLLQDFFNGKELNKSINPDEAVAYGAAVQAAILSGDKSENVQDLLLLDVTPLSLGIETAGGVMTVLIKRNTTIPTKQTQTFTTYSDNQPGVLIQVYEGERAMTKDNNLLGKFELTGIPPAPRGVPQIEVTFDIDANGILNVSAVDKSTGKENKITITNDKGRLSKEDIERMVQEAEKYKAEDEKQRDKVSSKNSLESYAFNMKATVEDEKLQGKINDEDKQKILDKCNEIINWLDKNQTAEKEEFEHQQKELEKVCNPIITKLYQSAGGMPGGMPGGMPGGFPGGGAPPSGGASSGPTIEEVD

B1: GST-J^aux, J-domain of bovine auxilin (residues 813-910) fused to GST (domain or fragment, UniProt Q27974 813-910, looked up)
chain: DPEKLKILEWIEGKERNIRALLSTMHTVLWAGETKWKPVGMADLVTPEQVKKVYRKAVLVVHPDKATGQPYEQYAKMIFMELNDAWSEFENQGQKPLY
B1: binds [1]; binds [2].
